Source: patent US10111902B2, “Polymers for reversing heparin-based anticoagulation” (University of British Columbia, priority 2011, dated 2018)

Assays:
[1] = test system: blood
[2] = test system: Tinzaparin; experiment: LMWH Tinzaparin neutralization in living rats (anti-Xa assay); type: in vivo, rat; conditions: 25 U Tinzaparin, then about 1 mg polymer or protamine (3 mg/kg)
Method: The present example examines heparin binding polymer effectiveness in vivo. HBSPCM polymers were tested for their ability to neutralize UFH and LMWH in living rats. Rats were first injected with heparin or heparin derivative, and then injected with the JNK-1 polymers, protamine or saline control to neutralize the previously administered heparin or heparin derivative. Neutralization was measured by detecting the percentage of factor Xa using an anti-Xa assay as a measure of anticoagulant activity.
In addition, Enoxaparin alone and JNK-1 polymers+Enoxaparin were compared (FIG. 8C). An anti-Xa assay was used to measure heparin activity in rat blood. In this pilot study, rats were injected with 25 U of UFH, Tinzaparin or Enoxaparin (0 minutes). Blood was collected after UFH, Tinzaparin, or Enoxaparin infusion (5 minutes). Approximately 1 mg of JNK-1 polymers or protamine (dose was 3 mg/kg) was injected at 7 minutes and the blood was collected at 12 minutes after UFH/Tinzaparin/Enoxaparin infusion (5 minutes after JNK-1 infusion), and 17 minutes (10 minutes after JNK-1 polymer infusion). For subjects receiving Enoxaparin, blood was collected at additional time points (25 minutes and 30 minutes). Blood samples collected before the UFH, Enoxaparin or Tinzaparin infusion were used as a base control. […] Each data point shown reflects an average and standard deviation from five rats. […]

protamine
Blood compatibility at 1 mg/ml [1]: poor [3] | neutralization of anticoagulant activity of Tinzaparin in rats (anti-Xa) [2]: could not completely neutralize the LMWH
